The data set deals with the molecule itself. Kind of data set: SEC; Superose 6 gel filtration of purified PAN, before heating. Background: SEC sorts molecules by how far they enter the pores of the column.

Several values for one entry are separate records, joined by “and”; a condition that tells them apart may be missing. Equal values may be shown once.

Results on 1 protein are retold here after PMC5244417, “Time-resolved neutron scattering provides new insight into protein substrate processing by a AAA+ unfoldase” (Scientific Reports, 2017).

As a reminder, the stoichiometry N is the number of molecules, sites or subunits per partner or assembly.

B1: PAN (proteasome activating nucleotidase) unfoldase from Methanocaldococcus jannaschii (enzyme, UniProt Q58576 1-430, looked up)
chain: MVFEEFISTELKKEKKAFTEEFKEEKEINDNSNLKNDLLKEELQEKARIAELESRILKLELEKKELERENLQLMKENEILRRELDRMRVPPLIVGTVVDKVGERKVVVKSSTGPSFLVNVSHFVNPDDLAPGKRVCLNQQTLTVVDVLPENKDYRAKAMEVDERPNVRYEDIGGLEKQMQEIREVVELPLKHPELFEKVGIEPPKGILLYGPPGTGKTLLAKAVATETNATFIRVVGSELVKKFIGEGASLVKDIFKLAKEKAPSIIFIDEIDAIAAKRTDALTGGDREVQRTLMQLLAEMDGFDARGDVKIIGATNRPDILDPAILRPGRFDRIIEVPAPDEKGRLEILKIHTRKMNLAEDVNLEEIAKMTEGCVGAELKAICTEAGMNAIRELRDYVTMDDFRKAVEKIMEKKKVKVKEPAHLDVLYR
notes: Purified as a mixture of dodecamers and hexamers; Monodisperse hexamers were obtained after heating at 60 °C with ATP and MgCl2; Perdeuterated PAN (dPAN) was used for the SANS data on PAN; also called MjPAN; PAN complex
Regarding B1, the “stoichiometry N” value is 12 and 6.
